This note sets out measurements from IntAct's records for PubMed 18007657.

The test concerns the target T1, anm10_arath PRMT10 (UniProt Q9MAT5).
T1 sequence: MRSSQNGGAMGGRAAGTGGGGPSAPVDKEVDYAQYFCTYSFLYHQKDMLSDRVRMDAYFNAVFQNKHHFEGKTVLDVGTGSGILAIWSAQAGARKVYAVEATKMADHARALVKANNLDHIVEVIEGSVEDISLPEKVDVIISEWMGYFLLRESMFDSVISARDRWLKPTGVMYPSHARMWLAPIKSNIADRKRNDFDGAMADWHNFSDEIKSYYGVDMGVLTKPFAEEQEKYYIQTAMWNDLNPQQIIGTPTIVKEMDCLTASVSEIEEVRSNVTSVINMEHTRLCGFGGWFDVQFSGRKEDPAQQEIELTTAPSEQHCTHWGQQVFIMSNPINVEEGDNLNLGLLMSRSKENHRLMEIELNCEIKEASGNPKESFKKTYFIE

Regarding “Histone H4 (Bos taurus (Bovine)) (from UniProt P62803) R4L”, the “effect of a mutation on the interaction” value was “decreasing interaction”.
